Positions count from the first letter of the chain named.
B1: HE2B8-1 (LR2B8HC + IgG1 G1m(3) allele 1 plus LR2B8LC + Kappa Km(3) allele 1) (antibody, V domains shown)
VH: QVQLVQPGAEVVKPGTSVKLSCKASGYTFTTYWMHWVNQAPGQGLEWIGEINPTNGHTNYNEKFKGKATLTVDKSTSTAYMELSSLRSEDTAVYYCARNYVGSIFDYWGQGTLLTVSS
VL: DIVMTQSPDSMAMSVGERVTLNCKASENVVSYVSWYQQKPGQSPKLLIYGASNRNTGVPDRFSGSGSATDFTLTISSVQAEDVADYHCGQSYNYPYTFGQGTKLEIKR
B2: HE2B8-4 (LRMR2B8HC + IgG1 G1m(3) allele 1 plus LRMR2B8LC + Kappa Km(3) allele 1) (antibody, V domains shown)
VH: B1 VH with V12K, N38R, E62Q, K65Q, K67R
VL: B1 VL with M11L, V15L, N55E, T56S
B3: HE2B8-3 (LRMR2B8HC + IgG1 G1m(3) allele 1 plus LR2B8LC + Kappa Km(3) allele 1) (antibody, V domains shown)
VH: B1 VH with V12K, N38R, E62Q, K65Q, K67R
VL: B1 VL
B4: HE2B8-2 (LR2B8HC + IgG1 G1m(3) allele 1 plus LRMR2B8LC + Kappa Km(3) allele 1) (antibody, V domains shown)
VH: B1 VH
VL: B1 VL with M11L, V15L, N55E, T56S
B5: anti-hHGF monoclonal antibody 2B8 (antibody, mouse IgG1, kappa)
heavy: QVQLQQPGAELVKPGTSVKLSCKASGYTFTTYWMHWVNQRPGQGLEWIGEINPTNGHTNYNEKFKSKATLTVDKSSSTAYMQLSSLTSEDSAVYYCARNYVGSIFDYWGQGTTLTVSSAKTTPPSVYPLAPGSAAQTNSMVTLGCLVKGYFPEPVTVTWNSGSLSSGVHTFPAVLQSDLYTLSSSVTVPSSTWPSETVTCNVAHPASSTKVDKKIVPRDCGCKPCICTVPEVSSVFIFPPKPKDVLTITLTPKVTCVVVDISKDDPEVQFSWFVDDVEVHTAQTQPREEQFNSTFRSVSELPIMHQDWLNGKEFKCRVNSAAFPAPIEKTISKTKGRPKAPQVYTIPPPKEQMAKDKVSLTCMITDFFPEDITVEWQWNGQPAENYKNTQPIMDTDGSYFVYSKLNVQKSNWEAGNTFTCSVLHEGLHNHHTEKSLSHSPGK
light: NIVMTQSPKSMSMSVGERVTLSCKASENVVSYVSWYQQKPAQSPKLLIYGASNRNTGVPDRFTGSGSATDFTLTISSVRAEDLADYHCGQSYNYPYTFGGGTRLEIKRADAAPTVSIFPPSSEQLTSGGASVVCFLNNFYPKDINVKWKIDGSERQNGVLNSWTDQDSKDSTYSMSSTLTLTKDEYERHNSYTCEATHKTSTSPIVKSFNRNEC
B6: sh2B8-9 (G1m(3)) = hu2B8 Hv5-51.1 + IgG1 constant G1m(3) allele 2 plus hu2B8 Kv1-39.1 + Kappa Km(3) allele 2 (antibody)
heavy: not shown
light: DIQMTQSPSSLSASVGDRVTITCKASENVVSYVSWYQQKPGKAPKLLIYGASNRNTGVPSRFSGSGSGTDFTLTISSLQPEDFATYYCGQSYNYPYTFGQGTKLEIKRTVAAPSVFIFPPSDEQLKSGTASVVCLLNNFYPREAKVQWKVDNALQSGNSQESVTEQDSKDSTYSLSSTLTLSKADYEKHKVYACEVTHQGLSSPVTKSFNRGEC
B7: anti-hHGF monoclonal antibody 3D11 (antibody, mouse IgG1, kappa, V domains shown)
VH: QVQLKESGPGLVAPSQSLSITCTVSGFSLTSYSLHWVRQPPGKGLEWLGVIWAGGNTNYNSSLMSRLTIRKDNSKSQVFLKMNSLQTDDTAMYYCARERFAYWGQGTLVTVSA
VL: QIVLTQSPAIMSAYPGEKVTMTCSASSSVSYMHWYQQKSGTSPKRWIYDTSKLASGVPARFSGSGSGTSYSLTISSMEAEDAATYYCQQWSSNPLTFGAGTKLELKR
B8: anti-hHGF monoclonal antibody 3B6 (antibody, mouse IgG1, kappa, V domains shown)
VH: QVQLQQSGAELVRPGSSVKISCKASGYVFSSYWMNWVKQRPGQGLEWIGQIYPGDGDSNYNGNFKGKATLTADKSSSTAYMQLSSLTSEDSAVYFCASQLGLRENYFDYWGQGTTLTVSS
VL: DIKMTQSPSSMYASLGERVTITCKASQDIKSYLSWFQQKPGKSPKTLIYRVNRLVDGVPSRFSGSGSGQDSSLTITSLENEDMGIYYCLQYDEFPFTFGGGTKLEIKR
B9: anti-hHGF monoclonal antibody 1A3 (antibody, mouse IgG1, kappa, V domains shown)
VH: EVQLVESGGGLVQPGGSLKLSCAASEFTFSNYYMSWVRQTPEKRLQWVAYISPGGGSSYYPASVKGRFTISRDNAKNTLYLQMSSLKSEDTAMYYCARQGDGYYGDYAMDYWGQGTSVTVSS
VL: DIQMTQSPASLSVSVGETVTITCRASENIYSNLAWYQQKQGKSPQLLVYAATNLADGVPSRFSGSGSGTQFSLKINSLQSEDFGTYYCQHFWGTPYTFGGGTKLEIKR
B10: anti-hHGF monoclonal antibody 1D3 (antibody, mouse IgG1, kappa, V domains shown)
VH: B9 VH with E26G, N31D, Q46E, P53S, S58T, A62D, M93I, A97V, T119I
VL: B9 VL with A25T, V48I, K74R, T85R
B11: anti-hHGF monoclonal antibody 1F3 (antibody, mouse IgG1, kappa, V domains shown)
VH: B9 VH with P14S, E26G, Y33F, Q46E, P53S, S58T, A62D, A97V
VL: B9 VL with A50D, N53H, A55P, T85S, K103R
B12: anti-hHGF monoclonal antibody 3A12 (antibody, mouse IgG1, kappa, V domains shown)
VH: B9 VH with L20I, E26G, Y33F, Q46E, P53S, S58T, A62D, S84N, A97V
VL: B9 VL with S31I, Y49H, N53K, F71Y, T85S
B13: anti-hHGF monoclonal antibody 2F8 (antibody, mouse IgG1, kappa, V domains shown)
VH: QVQLKQSGAELVRPGTSVKMSCKASGYTFTTYYIHWVNQRPGQGLEWIGKIGPGSGSTYYNEMFKDKATLTVDTSSSTAYMQLSSLTSDDSAVYFCARRGLGRGFDYWGQGTTLTVSS
VL: DIVLTQSPASLAVSLGQRATISCKASQSVDYDGNSYINWYQQKPGQPPKVLIYVASNLESGIPARFSGSGSGTDFTLNIHPVEEEDAATYYCQQSIEDPPTFGAGTKLELKR

target: T1, recombinant human HGF (R&D Systems, Catalog No. 294-HGN-025) (human, UniProt P14210 32-728); experiment: cell-based or functional assay
T1 sequence (P14210 32-728 limits assumed): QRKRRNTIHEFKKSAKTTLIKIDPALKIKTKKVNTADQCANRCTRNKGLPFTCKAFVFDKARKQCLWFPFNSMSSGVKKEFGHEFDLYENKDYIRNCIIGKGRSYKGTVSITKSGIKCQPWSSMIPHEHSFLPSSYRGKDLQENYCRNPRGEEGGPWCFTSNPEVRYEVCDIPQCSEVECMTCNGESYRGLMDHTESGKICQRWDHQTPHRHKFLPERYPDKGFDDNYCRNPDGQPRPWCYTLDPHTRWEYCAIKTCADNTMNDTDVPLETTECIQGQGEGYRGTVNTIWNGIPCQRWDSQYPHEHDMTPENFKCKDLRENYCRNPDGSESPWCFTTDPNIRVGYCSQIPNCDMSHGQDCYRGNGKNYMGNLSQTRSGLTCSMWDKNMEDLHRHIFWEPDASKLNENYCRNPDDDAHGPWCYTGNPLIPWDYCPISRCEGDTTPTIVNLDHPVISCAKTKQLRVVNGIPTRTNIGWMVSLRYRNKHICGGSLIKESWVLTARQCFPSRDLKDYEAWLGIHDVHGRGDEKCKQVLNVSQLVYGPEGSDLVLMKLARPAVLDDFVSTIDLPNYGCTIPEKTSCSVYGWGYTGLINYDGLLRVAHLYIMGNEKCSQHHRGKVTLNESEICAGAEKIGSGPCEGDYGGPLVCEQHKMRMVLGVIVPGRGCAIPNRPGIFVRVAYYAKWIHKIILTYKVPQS

Q: B1 was tested. Which “IC50 (nM), HGF stimulated BrdU incorporation in 4MBr-5 cells” value (“IC50 (nM)” for short) did it give?
A: The value was 0.47 nM.

Q: With B2 as the binder, how does the “IC50 (nM)” value read?
A: Its value is 0.58 nM.

Q: Which “IC50 (nM)” value does the source give for B3 here?
A: Its value is 0.55 nM.

Q: B4 was tested. Which “IC50 (nM)” value did it give?
A: The value was 0.66 nM.

Q: Which “IC50 (nM)” value does the source give for B5 here?
A: The value was 0.86 nM.

Q: With B6 as the binder, how does the “IC50 (nM)” value read?
A: The value was 0.52 nM.

target: T1, recombinant human HGF (R&D Systems, …); experiment: cell-based or functional assay; remark: another data set of the same source

Q: How did the “EC50 in nM, HGF-stimulated c-Met phosphorylation in PC-3 cells, Average of Two Trials” value (“EC50 in nM” below) turn out when B7 was run?
A: The value was 2.28 nM.

Q: B8 was tested. Which “EC50 in nM” value did it give?
A: Its value is 1.01 nM.

Q: For B9, which “EC50 in nM” value is on record?
A: The value was 0.684 nM.

Q: Which “EC50 in nM” value does the source give for B10 here?
A: The value was 0.984 nM.

Q: How did the “EC50 in nM” value turn out when B11 was run?
A: The value was 1.19 nM.

Q: B12 was tested. Which “EC50 in nM” value did it give?
A: Its value is 2 nM.

Q: For B5, which “EC50 in nM” value is on record?
A: The value was 0.287 nM.

Q: B13 was tested. Which “EC50 in nM” value did it give?
A: Its value is 1.39 nM.

target: T1, recombinant human HGF (R&D Systems, …); experiment: cell-based or functional assay; remark: another data set of the same source

Q: Which “IC50 (nM)” value does the source give for B7 here?
A: The value was 51.1 nM.

Q: B8 was tested. Which “IC50 (nM)” value did it give?
A: The value was 36.1 nM.

Q: B9 was tested. Which “IC50 (nM)” value did it give?
A: Its value is 4.69 nM.

Q: For B10, which “IC50 (nM)” value is on record?
A: The value was 4.99 nM.

Q: B11 was tested. Which “IC50 (nM)” value did it give?
A: Its value is 1.94 nM.

Q: For B12, which “IC50 (nM)” value is on record?
A: Its value is 30.3 nM.

Q: Which “IC50 (nM)” value does the source give for B5 here?
A: The value was 1.41 nM.

Q: How did the “IC50 (nM)” value turn out when B13 was run?
A: Its value is 19.2 nM.

target: T1, recombinant human HGF (R&D Systems, …); experiment: cell-based or functional assay; remark: another data set of the same source

Q: How did the “HGF-stimulated c-Met phosphorylation in PC-3 cells (assay of Example 9), Average of Two Trials” value turn out when B1 was run?
A: Its value is 0.8 nM.

Q: Which “HGF-stimulated c-Met phosphorylation in PC-3 cells (assay of Example 9), Average of Two Trials” value does the source give for B2 here?
A: The value was 0.75 nM.

Q: B3 was tested. Which “HGF-stimulated c-Met phosphorylation in PC-3 cells (assay of Example 9), Average of Two Trials” value did it give?
A: The value was 0.79 nM.

Q: Which “HGF-stimulated c-Met phosphorylation in PC-3 cells (assay of Example 9), Average of Two Trials” value does the source give for B4 here?
A: The value was 0.88 nM.

Q: B5 was tested. Which “HGF-stimulated c-Met phosphorylation in PC-3 cells (assay of Example 9), Average of Two Trials” value did it give?
A: The value was 0.91 nM.

Q: For B6, which “HGF-stimulated c-Met phosphorylation in PC-3 cells (assay of Example 9), Average of Two Trials” value is on record?
A: The value was 0.93 nM.
